The nature of data set [1]: Triton X-100 lysis, sucrose gradient flotation, COS-1. Conditions: glycan lost; control: wild type.
Data set [2] can be described thus: confocal colocalisation with GFP-Rab4, transfected HeLa/COS-1. The settings on record: glycan lost; control: wild type.

B1: human ClC-6 (hClC-6a): AAA-hClC-6 (protein)
parent chain: MAGCRGSLCCCCRWCCCCGERETRTPEELTILGETQEEEDEILPRKDYESLDYDRCINDPYLEVLETMDNKKGRRYEAVKWMVVFAIGVCTGLVGLFVDFFVRLFTQLKFGVVQTSVEECSQKGCLALSLLELLGFNLTFVFLASLLVLIEPVAAGSGIPEVKCYLNGVKVPGIVRLRTLLCKVLGVLFSVAGGLFVEKEGPMIHSGSVVGAGLPQFQSISLRKIQFNFPYFRSDRDKRDFVSAGAAAGVAAAFGAPIGGTLFSLEEGSSFWNQGLTWKVLFCSMSATFTLNFFRSGIQFGSWGSFQLPGLLNFGEFKCSDSDKKCHLWTAMDLGFFVVMGVIGGLLGATFNCLNKRLAKYRMRNVHPKPKLVRVLESLLVSLVTTVVVFVASMVLGECRQMSSSSQIGNDSFQLQVTEDVNSSIKTFFCPNDTYNDMATLFFNPQESAILQLFHQDGTFSPVTLALFFVLYFLLACWTYGISVPSGLFVPSLLCGAAFGRLVANVLKSYIGLGHIYSGTFALIGAAAFLGGVVRMTISLTVILIESTNEITYGLPIMVTLMVAKWTGDFFNKGIYDIHVGLRGVPLLEWETEVEMDKLRASDIMEPNLTYVYPHTRIQSLVSILRTTVHHAFPVVTENRGNEKEFMKGNQLISNNIKFKKSSILTRAGEQRKRSQSMKSYPSSELRNMCDEHIASEEPAEKEDLLQQMLERRYTPYPNLYPDQSPSEDWTMEERFRPLTFHGLILRSQLVTLLVRGVCYSESQSSASQPRLSYAEMAEDYPRYPDIHDLDLTLLNPRMIVDVTPYMNPSPFTVSPNTHVSQVFNLFRTMGLRHLPVVNAVGEIVGIITRHNLTYEFLQARLRQHYQTI
Turning to B1, the “other: detergent-resistant membrane association” value in data set [1] is “no change”. Besides, in data set [2], the localisation_or_trafficking entry was “no change”.
